Assay [1] deals with mouse melanoma cells (B16-F10) forced to express Snail. In words: In vivo, intratumoral administration, Snail-positive B16-F10 bone metastasis model (Example 17). Also on record: species or system C57BL/6N mice. The conditions noted are these: intratumoral 200 μg/0.1 mL/tumor on day 7; GFP-positive tumor cells in bone marrow, day 14. An excerpt: (§1) Three antibodies were comparatively analyzed for their antitumor effects and an immunosuppression-mitigating effect using bone metastasis models in which mouse melanoma cells B16-F10 forced to express Snail were subcutaneously and intravenously transplanted in C57BL/6N mice.
1. Experiment Group (n=5) • 1. No treatment • 2. Control IgG (anti-DNP) • 3. Anti-FSTL1 Clone #6-55 • 4. Anti-FSTL1 Clone #7-34 • 5. Anti-FSTL1 Clone #8-1 2. Experimental procedure • Day 0: transplantation of GFP-positive and Snail-positive B16-F10 tumor cells (5×10^5 cells subcutaneously & 1×10^5 cells intravenously) • Day 7: intratumoral administration of the antibody (200 μg/0.1 mL/tumor) • Day 14: various assays (with a focus on flow cytometry analysis) 3. Index for drug efficacy evaluation • Effects on the growth of subcutaneous tumor (calculation of tumor volume by tumor size measurement): measured 7, 11, and 14 days after tumor implantation (FIG. 11C) • Effects on bone metastasis (GFP-positive tumor cells in bone marrow) (FIG. 11A) • Effects on the expansion of mesenchymal stem cells (CD45-negative cells in bone marrow and in the spleen) (FIGS. 11B and 11D) • Effects on the expansion of immunosuppressive Treg cells (CD4-positive and Foxp3-positive cells in bone marrow or the spleen) (FIG. 11D) • Other immunosuppressive properties (FIG. 11D)
In order to evaluate in vivo antibody activity, antitumor effects and immunosuppression-mitigating effects were comparatively analyzed using bone metastasis models in which mouse melanoma cells (B16-F10) forced to express Snail were subcutaneously and intravenously transplanted in C57BL/6N mice. An anti-FSTL1 antibody to be tested was administered into tumor. On day 0, GFP-positive and Snail-positive B16-F10 tumor cells (5×10^5 cells subcutaneously & 1×10^5 cells intravenously) were transplanted. On day 7, the antibody was administered into subcutaneous tumor (200 μg/0.1 mL/tumor). On day 14, various assays were conducted. […]

Assay [2] relates to GFP-positive and Snail-positive B16-F10 tumor cells. The description is as above. Also on record: species or system mouse. The conditions noted are these: intratumoral 200 μg/0.1 mL/tumor on day 7; day 14.
Text: as §1
1. Experiment Group (n=5) • 1. No treatment • 2. Control IgG (anti-DNP) • 3. Anti-FSTL1 Clone #6-55 • 4. Anti-FSTL1 Clone #7-34 • 5. Anti-FSTL1 Clone #8-1
• Day 0: transplantation of GFP-positive and Snail-positive B16-F10 tumor cells (5×10^5 cells subcutaneously & 1×10^5 cells intravenously) • Day 7: intratumoral administration of the antibody (200 μg/0.1 mL/tumor) • Day 14: various assays (with a focus on flow cytometry analysis)
• Effects on the growth of subcutaneous tumor (calculation of tumor volume by tumor size measurement): measured 7, 11, and 14 days after tumor implantation (FIG. 41C) • Effects on bone metastasis (GFP-positive tumor cells in bone marrow) (FIG. 41A) • Effects on the expansion of mesenchymal stem cells (CD45-negative cells in bone marrow and in the spleen) (FIGS. 41B and 41D) • Effects on the expansion of immunosuppressive Treg cells (CD4-positive and Foxp3-positive cells in bone marrow or the spleen) (FIG. 41D) • Other immunosuppressive properties (FIG. 41D)
In order to evaluate in vivo antibody activity, antitumor effects and immunosuppression-mitigating effects were comparatively analyzed using bone metastasis models in which mouse melanoma cells ([…]) forced to express Snail were subcutaneously and intravenously transplanted in C57BL/6N mice. […]
It is known that when Snail-positive tumor cells are subcutaneously or intravenously transplanted to mice, the tumor metastasizes preferentially to bone marrow in addition to various organs, and this incurs the expansion of mesenchymal stem cells (MSCs) originating in the bone marrow, thereby systemically and strongly suppressing the induction of antitumor immunity (Cancer Research 73: 6185, 2013). […] The percentage (%) of CD45^− cells in the bone marrow cells was analyzed by flow cytometry. […]

Substitutions are numbered along the chain they refer to.

B1: #6-55: chicken-mouse chimeric anti-FSTL1 antibody clone; variable regions SEQ ID NO: 783 (light), 785 (heavy) (antibody, V domains shown)
VH: AVTLDESGGGLQTPGGALSLVCKGSGFTFTSVTMQWVRQAPGKGLEWVASVCSGSSTYYAPAVKGRATISRDNGQSTVRLQLSNLRPEDTGTYYCAKIAGRARWSCTSAAYNIDAWGHGTEVIVSS
VL: ASTQPSSVSAIPGETVKITCSGGGNNYGWYQQRSPGSAPVTVIYYNDNRPSNIPSRFSGSTSGSTSTLTITGVQADDEAIYYCGSWDSNTDSGIFGAGTTLTVL
modifications: mouse constant regions
In the case of B1, the bone metastasis entry in assay [1] was “bone metastasis was suppressed by only #6-55 and #8-1”. The “bone metastasis (GFP-positive tumor cells in bone marrow)” value in assay [2] is “suppressed”.

B2: #7-34: chicken-mouse chimeric anti-FSTL1 antibody clone; variable regions SEQ ID NO: 787 (light), 789 (heavy) (antibody, V domains shown)
VH: AVTLDESGGGLQTPGGGLSLVCKASGFTFSSVTMQWVRQAPGKGLEWVASICSGSSTYYGPAVKGRATISRDNGQNTVRLQLNNLRAEDTATYYCAKIVGRGRWSCTSAAYNIDAWGHGTEVIVSS
VL: B1 VL with I11N, R33K, D47N, D76E, I80V, W86Y, D87E, S88G, N89S
modifications: mouse constant regions
With B2, the bone metastasis entry in assay [1] is on record as “no suppressive effect was seen”. In assay [2], the “bone metastasis (GFP-positive tumor cells in bone marrow)” value was “no suppressive effect was seen”.

B3: #8-1: chicken-mouse chimeric anti-FSTL1 antibody clone; variable regions SEQ ID NO: 791 (light), 793 (heavy) (antibody, V domains shown)
VH: AVTLDESGGGLQTPGGALSLVCKGSGFTFSSFNMFWVRQAPGKGLEWVAGIGKDGVPKYGAAVDGRATISKDNGQSTMRLQLNNLRAEDTGTYFCAKAAGGCSYDWCGIYAGDIDTWGHGTEVIVSS
VL: ASTQPSSVSANPGEAVKITCSGGSGSYYGWYQQKSPGSAPVTVIYNNNQRPSDIPSRFSGSKSGSTATLTITGVQAEDEAVYFCGGYDSSSGHGGIFGAGTTLTVL
modifications: mouse constant regions
Regarding B3, the bone metastasis result in assay [1] is “bone metastasis was suppressed by only #6-55 and #8-1”. Moreover, the “bone metastasis (GFP-positive tumor cells in bone marrow)” value in assay [2] is reported as “suppressed”.

These data come from patent publication US20180021429A1, “ANTICANCER AGENTS OR ANTIMETASTATIC AGENTS USING FSTL1 AND COMBINATION DRUG THEREOF” (PHARMA FOODS INTERNATIONAL CO., LTD., priority 2015, published 2018).
